Measured values from publication PMC6100724, “Proteome‐wide analysis of phospho‐regulated PDZ domain interactions” (Molecular Systems Biology, 2018).
Square brackets hold non-standard residues; d marks the D form. Ends that are not written are not given here. * marks the point of attachment. FITC = O=C1OC2(c3ccc(O)cc3Oc3cc(O)ccc32)c2ccc(NC(=S)*)cc21; pS = N[C@@H](COP(=O)(O)O)C(=O)O

B1: RPHTNETpSL (MCC peptide, phosphorylated at p-1, unlabelled) (peptide)
peptide: RPHTNET[pS]L
notes: C-terminal peptide of human MCC; also called phosphorylated MCC; source: synthetic peptide, bought: GeneCust
B2: RPHTNETSL (MCC peptide, unphosphorylated, unlabelled) (peptide)
peptide: RPHTNETSL
notes: C-terminal peptide of human MCC; also called unphosphorylated MCC; source: synthetic peptide, bought: GeneCust
B3: MKRLTSTRL (RPS6KA2 peptide, unphosphorylated, unlabelled) (peptide)
peptide: MKRLTSTRL
notes: C-terminal peptide of human RPS6KA2; also called unphosphorylated RPS6KA2; unphosphorylated ligand; source: synthetic peptide, bought: GeneCust
B4: MCC peptide RPHTNETpSL (p-1 phosphorylated) (peptide)
peptide: RPHTNET[pS]L
notes: C-terminal nine residues of MCC (colorectal mutant cancer protein), human; also called pMCC; source: synthetic peptide, bought: GeneCust
B5: MCC peptide RPHTNETSL (unphosphorylated) (peptide)
peptide: RPHTNETSL
notes: C-terminal nine residues of MCC (colorectal mutant cancer protein), human; source: synthetic peptide, bought: GeneCust
B6: RPS6KA2 peptide MKRLTSTRL (unphosphorylated) (peptide)
peptide: MKRLTSTRL
notes: C-terminal nine residues of RPS6KA2, human; source: synthetic peptide, bought: GeneCust
B7: FITC-RLTpSTRL (RPS6KA2 peptide, p-3 phosphorylated) (peptide)
peptide: {FITC}-RLT[pS]TRL
notes: C-terminal seven residues of RPS6KA2, human; the methods give pS at this position; also called pRPS6KA2; source: synthetic peptide, bought: GeneCust
B8: FITC-RLTSTRL (RPS6KA2 peptide, unphosphorylated) (peptide)
peptide: {FITC}-RLTSTRL
notes: C-terminal seven residues of RPS6KA2, human; source: synthetic peptide, bought: GeneCust
B9: FITC-RLTETRL (RPS6KA2 peptide, phosphomimetic at p-3) (peptide)
peptide: {FITC}-RLTETRL
notes: C-terminal seven residues of RPS6KA2, human, with S730E; also called Mimetic RPS6KA2; source: synthetic peptide, bought: GeneCust
B10: FITC-HTNETpSL (MCC peptide, p-1 phosphorylated) (peptide)
peptide: {FITC}-HTNET[pS]L
notes: C-terminal seven residues of MCC, human; also called pMCC; source: synthetic peptide, bought: GeneCust
B11: FITC-HTNETEL (MCC peptide, phosphomimetic at p-1) (peptide)
peptide: {FITC}-HTNETEL
notes: also called Mimetic MCC; source: synthetic peptide, bought: GeneCust
B12: FITC-KRSFIESNV (TANC1 peptide, unphosphorylated) (peptide)
peptide: {FITC}-KRSFIESNV
notes: C-terminal nine residues of TANC1, human; source: synthetic peptide, bought: GeneCust
B13: FITC-KREFIESNV (TANC1 peptide, phosphomimetic at p-6) (peptide)
peptide: {FITC}-KREFIESNV
notes: also called Mimetic TANC1; source: synthetic peptide, bought: GeneCust
B14: FITC-KRpSFIESNV (TANC1 peptide, p-6 phosphorylated) (peptide)
peptide: {FITC}-KR[pS]FIESNV
notes: C-terminal nine residues of TANC1, human; also called pTANC1; source: synthetic peptide, bought: GeneCust
B15: FITC-HTNETSL (MCC peptide, unphosphorylated) (peptide)
peptide: {FITC}-HTNETSL
notes: C-terminal seven residues of MCC, human; source: synthetic peptide, bought: GeneCust
B16: FITC-RLTETRL, phosphomimetic (p-3) RPS6KA2 peptide (peptide)
peptide: {FITC}-RLTETRL
notes: also called RPS6KA2 Mimetic; source: synthetic peptide (GeneCust)
B17: FITC-KRpSFIESNV, p-6 phosphorylated TANC1 peptide (peptide)
peptide: {FITC}-KR[pS]FIESNV
notes: also called TANC1 Phosphorylated; source: synthetic peptide (GeneCust)
B18: FITC-RLTpSTRL, p-3 phosphorylated RPS6KA2 peptide (peptide)
peptide: {FITC}-RLT[pS]TRL
notes: also called RPS6KA2 Phosphorylated; source: synthetic peptide (GeneCust)
B19: FITC-KRSFIESNV, unphosphorylated TANC1 peptide (peptide)
peptide: {FITC}-KRSFIESNV
notes: also called TANC1 Unphosphorylated; source: synthetic peptide (GeneCust)
B20: FITC-RLTSTRL, unphosphorylated RPS6KA2 peptide (peptide)
peptide: {FITC}-RLTSTRL
notes: C-terminal peptide of human RPS6KA2 (RLTSTRL-coo-); also called RPS6KA2 Unphosphorylated; source: synthetic peptide (GeneCust)
B21: FITC-labeled RPS6KA1 peptide, unphosphorylated (VRKLPSTTL) (peptide)
peptide: VRKLPSTTL
modifications: also: FITC label, position not given here
notes: C-terminal tail of human RPS6KA1; also called unphosphorylated RPS6KA1 peptide; source: synthetic peptide (FITC-labeled)
B22: FITC-labeled RPS6KA1 peptide, p-3 phosphorylated (VRKLPpSTTL) (peptide)
peptide: VRKLP[pS]TTL
modifications: also: FITC label, position not given here
notes: C-terminal tail of human RPS6KA1; also called phosphorylated RPS6KA1; source: synthetic peptide (FITC-labeled)
B23: FITC-HTNETSL (MCC peptide, unphosphorylated) (peptide)
peptide: {FITC}-HTNETSL
notes: C-terminal peptide of human MCC (colorectal mutant cancer protein); also called wild-type MCC peptide; source: synthetic peptide, bought: GeneCust
B24: FITC-HTNETpSL (MCC peptide, phosphorylated at p-1) (peptide)
peptide: {FITC}-HTNET[pS]L
notes: C-terminal peptide of human MCC; also called pMCC; source: synthetic peptide, bought: GeneCust

The binders below were run against T1, Scribble PDZ1 (His-tagged, aa 719-829) (human, UniProt Q14160 719-829) (assay: ITC; iTC200, 25°C, 20 mM HEPES pH 7.4; protein 50-100 μM in the cell, peptide 0.64-3 mM in the syringe; single-site fit, stoichiometry fixed to 0.8-1.1; n = 3). Settings: both partners purified.
T1 construct: human Scribble, PDZ1, aa 719-829, in pETM-11; Used for MST and ITC; removal of the His tag is told only for the NMR samples; also called Scribble PDZ1 wild type; source: E. coli BL21 Gold (DE3), purified (Ni2+ Sepharose), dialysed
T1 sequence (Q14160 719-829): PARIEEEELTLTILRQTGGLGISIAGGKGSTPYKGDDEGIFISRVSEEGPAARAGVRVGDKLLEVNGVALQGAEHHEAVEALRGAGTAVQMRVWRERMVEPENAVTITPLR

Binder	fold lower KD than for the unphosphorylated peptide [fold]
B1	2

The binders below were run against T2, Scribble PDZ1 R762A/A743R (human, UniProt Q14160 719-829, R762A | A743R) in the same assay as above. Settings: both partners purified.
T2 construct: human Scribble, PDZ1, aa 719-829, A743R introduced in the background of R762A; also called R762A/A743R mutant; source: E. coli BL21 Gold (DE3), purified (Ni2+ Sepharose), dialysed
T2 sequence (Q14160 719-829 A743R/R762A): as the sequence (Q14160 719-829) above, with A25R, R44A counted along it

Binder	binding result
B2	binds
B3	binds
B1	binds

These binders were tested against T3, Scribble PDZ1 (human, aa 719-829) (human, UniProt Q14160 719-829) (assay: ITC; iTC200, 25°C, 20 mM HEPES pH 7.4; protein 50-100 µM in the cell, 0.64-3 mM peptide in the syringe; single-site fit, stoichiometry fixed to 0.8-1.1; triplicate). Settings: both partners purified.
T3 construct: Scribble, human, PDZ1, aa 719-829 in pETM-11; The His tag was cleaved only for the NMR samples; nothing is said of cleavage for MST and ITC; also called Scribble PDZ1 wild type; source: E. coli BL21 Gold (DE3), purified (Ni2+ Sepharose)
T3 sequence (Q14160 719-829): as the sequence (Q14160 719-829) above

Binder	Kd [µM]
B4	2.6
B5	4.4
B6	18

The binders below were run against T4, Scribble PDZ1 A743R (human, UniProt Q14160 719-829, A743R) in the same assay as above. Settings: both partners purified.
T4 construct: Scribble, human, PDZ1, aa 719-829 in pETM-11, with A743R; the text describes A743R only in the R762A background; source: E. coli BL21 Gold (DE3), purified (Ni2+ Sepharose)
T4 sequence (Q14160 719-829 A743R): as the sequence (Q14160 719-829) above, with A25R counted along it

Binder	Kd [µM]
B6	15

Each binder was assayed against T5, Scribble PDZ1 K746A (human, UniProt Q14160 719-829, K746A) in the same assay as above. Settings: both partners purified.
T5 construct: Scribble, human, PDZ1, aa 719-829 in pETM-11, with K746A; source: E. coli BL21 Gold (DE3), purified (Ni2+ Sepharose)
T5 sequence (Q14160 719-829 K746A): as the sequence (Q14160 719-829) above, with K28A counted along it

Binder	Kd [µM]
B6	10

What follows are binders tested against T6, Scribble PDZ1 R762A (human, UniProt Q14160 719-829, R762A) in the same assay as above. Settings: both partners purified.
T6 construct: Scribble, human, PDZ1, aa 719-829 in pETM-11, with R762A; source: E. coli BL21 Gold (DE3), purified (Ni2+ Sepharose)
T6 sequence (Q14160 719-829 R762A): as the sequence (Q14160 719-829) above, with R44A counted along it

Binder	Kd [µM]
B4	25
B5	11.3
B6	9.7

The binders below were run against T7, Scribble PDZ1 R801A (human, UniProt Q14160 719-829, R801A) in the same assay as above. Settings: both partners purified.
T7 construct: Scribble, human, PDZ1, aa 719-829 in pETM-11, with R801A (text, methods and primers); source: E. coli BL21 Gold (DE3), purified (Ni2+ Sepharose)
T7 sequence (Q14160 719-829 R801A): as the sequence (Q14160 719-829) above, with R83A counted along it

Binder	Kd [µM]
B6	28

These binders were tested against T8, Scribble PDZ1 R762A/A743R (human, UniProt Q14160 719-829, A743R | R762A) in the same assay as above. Settings: both partners purified.
T8 construct: Scribble, human, PDZ1, aa 719-829 in pETM-11, with R762A and A743R; also called R762A/A743R mutant; source: E. coli BL21 Gold (DE3), purified (Ni2+ Sepharose)
T8 sequence (Q14160 719-829 A743R/R762A): as the sequence (Q14160 719-829) above, with A25R, R44A counted along it

Binder	Kd [µM]
B4	14
B5	5.8
B6	60

The binders below were run against T3, Scribble PDZ1 (human, aa 719-829) (assay: MST; FITC-labelled peptide fixed at 25-50 nM, PDZ domain titrated (1:1 dilution series); 50 mM Tris-HCl pH 7.4, 0.1% Tween-20; thermophoresis and T-Jump signal; triplicate). Settings: both partners purified.

Binder	Kd [µM]
B7	1.7
B8	8.9
B9	0.7
B10	0.6
B11	1.1
B12	42
B13	52
B14	101
B15	1.8

What follows are binders tested against T9, DLG1 PDZ2 (human, aa 311-407) (human, UniProt Q12959 311-407) in the same assay as above. Settings: both partners purified.
T9 construct: DLG1, human, PDZ2, aa 311-407 in a modified pRSET vector; also called DLG PDZ2; source: E. coli BL21 Gold (DE3), purified (Ni2+ Sepharose)
T9 sequence (Q12959 311-407): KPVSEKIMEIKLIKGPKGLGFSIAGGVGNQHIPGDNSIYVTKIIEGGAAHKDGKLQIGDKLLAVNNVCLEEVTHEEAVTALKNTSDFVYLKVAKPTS

Binder	Kd [µM]
B7	72
B8	95
B9	14
B11	21
B12	2.7
B13	5.1
B14	6.1

The binders below were run against T10, DLG1 PDZ2 (human DLG1 PDZ2 aa 311-407) (human, UniProt Q12959 311-407) (assay: MST; FITC-labeled peptide fixed at 25-50 nM, DLG1 PDZ2 titrated (1:1 dilution series); 50 mM Tris-HCl pH 7.4, 0.1% Tween-20; KD from thermophoresis and T-Jump signal; n = 3). Settings: both partners purified.
T10 construct: Disks large homolog 1 (DLG1), human, second PDZ domain, aa 311-407, in a modified pRSET vector (Chi et al, 2009); removal of the His tag is told only for the NMR sample of Scribble PDZ1 and for SHANK1 PDZ; also called DLG PDZ2; source: E. coli BL21 Gold (DE3), purified (Ni2+ Sepharose), dialyzed into 50 mM Tris-HCl pH 7.4
T10 sequence (Q12959 311-407): as above

Binder	Kd [µM]
B16	14
B17	6.1
B18	72
B19	2.7
B20	95

The binders below were run against T11, SHANK1 PDZ (human, aa 652-761) (human, UniProt Q9Y566 652-761) (assay: MST; FITC-labelled peptide fixed at 25-50 nM, untagged SHANK1 PDZ titrated (1:1 dilution series); PBS, 10 mM MgCl2, 0.05% Tween-20; thermophoresis and T-Jump signal; triplicate). Settings: both partners purified.
T11 construct: Shank1, human, PDZ, aa 652-761 in pETM-33; source: E. coli BL21 Gold (DE3), purified (Ni2+ Sepharose; tag removed with HRV3C protease)
T11 sequence (looked up): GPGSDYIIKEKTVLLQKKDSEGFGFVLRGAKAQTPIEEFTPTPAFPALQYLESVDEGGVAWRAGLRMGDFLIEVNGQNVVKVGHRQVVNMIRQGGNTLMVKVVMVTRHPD

Binder	Kd [µM]
B7	16
B8	4.5
B9	62
B10	47
B11	52
B15	15

What follows are binders tested against T1, Scribble PDZ1 (His-tagged, aa 719-829) (assay: MST; FITC-labeled peptide fixed at 25-50 nM, protein (Scribble PDZ1 or DLG1 PDZ2) in a 1:1 dilution series; 50 mM Tris-HCl pH 7.4, 0.1% Tween-20; thermophoresis and T-Jump signal; n = 3). Settings: both partners purified.

Binder	Kd [µM]
B21	1
B22	0.39

What follows are binders tested against T12, DLG1 PDZ2 (His-tagged, aa 311-407) (human, UniProt Q12959 311-407) in the same assay as above. Settings: both partners purified.
T12 construct: human DLG1, PDZ2, aa 311-407, in a modified pRSET vector; also called DLG PDZ2; source: E. coli BL21 Gold (DE3), purified (Ni2+ Sepharose), dialysed
T12 sequence (Q12959 311-407): as the sequence (Q12959 311-407) above

Binder	Kd [µM]
B23	6.4
B24	57
